Where a chain is given by its changes, count along the chain named.
Experiments:
FhuCB wild-type = target: T1, FhuCB wild-type (Escherichia coli, UniProt P07821 1-265; P06972 1-660, red-tris-NTA 2nd generation dye on the His-tag); assay: MST; 40 nM FhuCB in detergent, His-tag labelled with red-tris-NTA 2nd generation dye; serial dilution of 30 μM FhuD without substrate; no ATP-Mg; Monolith NT.115pico, 20% LED power, medium MST power; conditions: both partners purified
T1 construct: FhuC, ATPase subunit, Escherichia coli; whole operon cloned from the genome, FhuD gene deleted; thrombin site after the His-tag; FhuB, membrane subunit, Escherichia coli, 660 residues; also called FhuCB subcomplex; source: E. coli BL21(DE3) C43, purified (TALON, Superose 6 gel filtration) in LMNG; not shown: His-tag, N-terminal, kept; copies: 2 + 1
T1 sequence (looked up) 1: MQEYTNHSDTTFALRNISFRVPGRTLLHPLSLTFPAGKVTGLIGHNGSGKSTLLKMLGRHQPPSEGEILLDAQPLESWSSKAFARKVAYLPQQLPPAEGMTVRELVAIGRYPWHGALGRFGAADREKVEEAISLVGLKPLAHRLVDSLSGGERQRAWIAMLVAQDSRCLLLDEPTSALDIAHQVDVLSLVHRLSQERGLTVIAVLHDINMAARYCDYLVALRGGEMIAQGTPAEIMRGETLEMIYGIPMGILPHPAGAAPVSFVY
T1 sequence (looked up) 2: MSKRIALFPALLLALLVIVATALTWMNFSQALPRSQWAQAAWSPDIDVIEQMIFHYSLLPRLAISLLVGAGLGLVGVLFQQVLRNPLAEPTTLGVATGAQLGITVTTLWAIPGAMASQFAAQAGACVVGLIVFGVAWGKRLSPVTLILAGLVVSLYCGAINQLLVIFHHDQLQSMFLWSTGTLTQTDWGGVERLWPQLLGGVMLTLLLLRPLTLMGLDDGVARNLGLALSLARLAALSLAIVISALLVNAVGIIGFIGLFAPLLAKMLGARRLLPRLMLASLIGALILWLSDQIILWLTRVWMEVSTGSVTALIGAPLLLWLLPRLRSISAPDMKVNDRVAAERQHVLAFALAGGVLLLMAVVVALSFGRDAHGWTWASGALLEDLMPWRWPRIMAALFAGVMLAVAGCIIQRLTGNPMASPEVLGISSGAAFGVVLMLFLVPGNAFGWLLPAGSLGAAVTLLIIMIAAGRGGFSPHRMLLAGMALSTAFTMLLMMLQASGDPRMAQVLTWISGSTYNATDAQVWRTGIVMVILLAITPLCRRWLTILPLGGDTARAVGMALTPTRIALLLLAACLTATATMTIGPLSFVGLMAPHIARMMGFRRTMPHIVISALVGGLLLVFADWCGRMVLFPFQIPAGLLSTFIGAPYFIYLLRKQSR

FhuCB with FhuB E304A = target: T2, FhuCB with FhuB E304A (Escherichia coli, UniProt P07821 1-265; P06972 1-660, E304A, red-tris-NTA 2nd generation dye on the His-tag); assay: MST; 40 nM FhuCB (wild type or FhuB mutant) in detergent, His-tag labelled with red-tris-NTA 2nd generation dye; serial dilution of 1.6 μM FhuD with substrate ferrichrome; with ATP-Mg; Monolith NT.115pico, 20% LED power, medium MST power; conditions: both partners purified
T2 construct: FhuC, ATPase subunit, Escherichia coli; as in Dm2; FhuB, membrane subunit, Escherichia coli, 660 residues; Mutant made on the FhuCB-pET15b construct by direct mutagenesis; source: E. coli BL21(DE3) C43, purified (TALON, Superose 6 gel filtration) in LMNG; not shown: His-tag, N-terminal, kept; copies: 2 + 1
T2 sequence (looked up) 1: T1 sequence (looked up) 1
T2 sequence (looked up) 2: T1 sequence (looked up) 2 with E304A

Kd (FhuCB wild-type): 1620 nM
Kd (FhuCB with FhuB E304A): 15.1 nM
B1: FhuD (natural protein, Escherichia coli)
chain: AAIDPNRIVALEWLPVELLLALGIVPYGVADTINYRLWVSEPPLPDSVIDVGLRTEPNLELLTEMKPSFMVWSAGYGPSPEMLARIAPGRGFNFSDGKQPLAMARKSLTEMADLLNLQSAAETHLAQYEDFIRSMKPRFVKRGARPLLLTTLIDPRHMLVFGPNSLFQEILDEYGIPNAWQGETNFWGSTAVSIDRLAAYKDVDVLCFDHDNSKDMDALMATPLWQAMPFVRAGRFQRVPAVWFYGATLSAMHFVRVLDNAIGGKA
notes: In 'FhuD-ferrichrome' the protein was loaded with the small molecule ferrichrome; also called FhuD-ferrichrome (when loaded with ferrichrome)

Source: article PMC8660799, “Cryo-EM reveals unique structural features of the FhuCDB Escherichia coli ferrichrome importer” (Communications Biology, 2021)
